Source: article PMC10250241 (Nucleic Acids Research, 2023)

B1: mms22N-3D (S126, T127, S131D) (domain or fragment, S. cerevisiae, UniProt Q06164 1-300, looked up)
chain: MDVDEPNPIVISDSEATDEEISIIYEPEFNENYLWAEENVQEASRSQKIVTERLSLDSTAGESCTPSVVTDTQVTTGLRWSLRKRKAIQKMPYSLERIKHRQLLEGYDISSFDSISNQLTLPKNADDVIHDNDILLTKRTGKPLDEQKDVTIDSIKPENSSVQSQRYDSDEEIPKKRHRTFKDLDQDIVFQSGDSTEDEQDLASTNLQNTQNDEVIFRGRVLNVRTGYRGVLPRVAWEKSLQKQQSSKVTKRKTQLLNHKGVAKRKMNRSAHIEDEEQNLLNDLIAPDDELDIEENAPPD
B2: His6-Eco1 (enzyme, S. cerevisiae, UniProt P43605 1-281, looked up)
chain: MKARKSQRKAGSKPNLIQSKLQVNNGSKSNKIVKCDKCEMSYSSTSIEDRAIHEKYHTLQLHGRKWSPNWGSIVYTERNHSRTVHLSRSTGTITPLNSSPLKKSSPSITHQEEKIVYVRPDKSNGEVRAMTEIMTLVNNELNAPHDENVIWNSTTEEKGKAFVYIRNDRAVGIIIIENLYGGNGKTSSRGRWMVYDSRRLVQNVYPDFKIGISRIWVCRTARKLGIATKLIDVARENIVYGEVIPRYQVAWSQPTDSGGKLASKYNGIMHKSGKLLLPVYI

Columns and labels:
SEC = molecular target: the molecule itself; assay: SEC
[1] = molecular target: B1; assay: SEC

| Binder | stoichiometry N (SEC) | binding result [1] |
| --- | --- | --- |
| B1 | 2 | – |
| B2 | – | binds |
